Results reported in the supplement of paper PMC5998384.

How the values were obtained:
[1] = test system: HeLa Kyoto; experiment: solubility change mitosis vs G1/S (difference of NP-40 vs SDS log2 ratios) (log2 ratio difference); higher = more soluble in mitosis
[2] = test system: HeLa Kyoto; experiment: thermal stability score vs G1/S (z-score of summed log2 fold changes over temperatures); higher = more thermally stable than in G1/S
[3] = test system: HeLa Kyoto; experiment: solubility in G1/S (NP-40 vs SDS abundance) (log2 ratio); higher = more soluble; details: cell cycle stage: G1/S
[4] = test system: HeLa Kyoto; experiment: melting temperature (median over replicates), in situ; higher = more thermally stable
[5] = cell cycle stage: early G1 (4.5 h after nocodazole release)
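For melting temperature (median over replicates), in situ in this document: HeLa Kyoto cells synchronized by double thymidine or nocodazole block, proteins quantified by TMT10plex mass spectrometry, three independent biological replicates.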
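For solubility change mitosis vs G1/S (difference of NP-40 vs SDS log2 ratios) in this document: synchronized HeLa Kyoto cells (double thymidine block for G1/S, nocodazole release for mitosis), protein amounts in NP-40 versus SDS lysates quantified by mass spectrometry, three biological replicates.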
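For solubility in G1/S (NP-40 vs SDS abundance) in this document: HeLa Kyoto cells arrested at G1/S by double thymidine block, proteins quantified by TMT10plex mass spectrometry in mild NP-40 versus SDS extracts, three biological replicates.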
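For thermal stability score vs G1/S (z-score of summed log2 fold changes over temperatures) in this document: synchronized HeLa Kyoto cells, proteins quantified by TMT10plex mass spectrometry, three biological replicates, mitosis taken 0.5 h after nocodazole release, G1/S directly after double thymidine block.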

Chain of MSI2 (chain, as listed by the source): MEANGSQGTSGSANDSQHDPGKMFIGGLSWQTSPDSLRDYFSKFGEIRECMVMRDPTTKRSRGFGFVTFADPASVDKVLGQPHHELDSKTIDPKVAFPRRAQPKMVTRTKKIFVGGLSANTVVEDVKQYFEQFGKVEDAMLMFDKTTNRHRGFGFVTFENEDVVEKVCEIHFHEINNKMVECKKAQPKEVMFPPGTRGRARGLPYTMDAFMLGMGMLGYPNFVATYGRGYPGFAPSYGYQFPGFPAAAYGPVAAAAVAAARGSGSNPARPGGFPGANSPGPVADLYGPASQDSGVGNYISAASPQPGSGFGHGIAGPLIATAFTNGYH

Substance | solubility change mitosis (log2) [1] | thermal stability score [2, 5] | thermal stability score ([2]; cell cycle stage: mitosis) | solubility in G1/S (log2) [3] | melting temperature ([4]; cell cycle stage: G1/S) | melting temperature ([4]; cell cycle stage: mitosis)
MSLSSGASGGKGVDANPVETYDSGDEWDIGVGNLIIDLDADLEKDQQKLEMSGSKEVGIPAPNAVATLPDNIKFVTPVPGPQGKEGKSKSKRSKSGKDTSKPTPGTSLFTPSEGAASKKEVQGRSGDGANAGGLVAAIAPKGSEKAAKASRSVAGSKKEKENSSSKSKKERSEGVGTCSEKDPGVLQPVPLGGRGGQYDGSAGVDTGAVEPLGSIAIEPGAALNPLGTKPEPEEGENECRLLKKVKSEKMESPVSTPAVLPIHLLVPVVNNDISSPCEQIMVRTRSVGVNTCDVALATEPECLGPCEPGTSVNLEGIVWQETEDGMLVVNVTWRNKTYVGTLLDCTRHDWAPPRFCDSPTSDLEMRNGRGRGKRMRPNSNTPVNETATASDSKGTSNSSKTRAGANSKGRRGSQNSSEHRPPASSTSEDVKASPSSANKRKNKPLSDMELNSSSEDSKGSKRVRTNSMGSATGPLPGTKVEPTVLDRNCPSPVLIDCPHPNCNKKYKHINGLKYHQAHAHTDDDSKPEADGDSEYGEEPILHADLGSCNGASVSQKGSLSPARSATPKVRLVEPHSPSPSSKFSTKGLCKKKLSGEGDTDLGALSNDGSDDGPSVMDETSNDAFDSLERKCMEKEKCKKPSSLKPEKIPSKSLKSARPIAPAIPPQQIYTFQTATFTAASPGSSSGLTATVAQAMPNSPQLKPIQPKPTVMGEPFTVNPALTPAKDKKKKDKKKKESSKELESPLTPGKVCRAEEGKSPFRESSGDGMKMEGLLNGSSDPHQSRLASIKAEADKIYSFTDNAPSPSIGGSSRLENTTPTQPLTPLHVVTQNGAEASSVKTNSPAYSDISDAGEDGEGKVDSVKSKDAEQLVKEGAKKTLFPPQPQSKDSPYYQGFESYYSPSYAQSSPGALNPSSQAGVESQALKTKRDEEPESIEGKVKNDICEEKKPELSSSSQQPSVIQQRPNMYMQSLYYNQYAYVPPYGYSDQSYHTHLLSTNTAYRQQYEEQQKRQSLEQQQRGVDKKAEMGLKEREAALKEEWKQKPSIPPTLTKAPSLTDLVKSGPGKAKEPGADPAKSVIIPKLDDSSKLPGQAPEGLKVKLSDASHLSKEASEAKTGAECGRQAEMDPILWYRQEAEPRMWTYVYPAKYSDIKSEDERWKEERDRKLKEERSRSKDSVPKEDGKESTSSDCKLPTSEESRLGSKEPRPSVHVPVSSPLTQHQSYIPYMHGYSYSQSYDPNHPSYRSMPAVMMQNYPGSYLPSSYSFSPYGSKVSGGEDADKARASPSVTCKSSSESKALDILQQHASHYKSKSPTISDKTSQERDRGGCGVVGGGGSCSSVGGASGGERSVDRPRTSPSQRLMSTHHHHHHLGYSLLPAQYNLPYAAGLSSTAIVASQQGSTPSLYPPPRR [ZNF609] | 0.204 | -1.11 | 2.18 | 0.0412 | 49.9 °C | 52.1 °C
MSGGKYVDSEGHLYTVPIREQGNIYKPNNKAMADELSEKQVYDAHTKEIDLVNRDPKHLNDDVVKIDFEDVIAEPEGTHSFDGIWKASFTTFTVTKYWFYRLLSALFGIPMALIWGIYFAILSFLHIWAVVPCIKSFLIEIQCISRVYSIYVHTVCDPLFEAVGKIFSNVRINLQKEI [CAV1] | -0.0544 | -2.45 | -3.05 | -0.297 | 57.3 °C | 54.6 °C
MDRRSMGETESGDAFLDLKKPPASKCPHRYTKEELLDIKELPHSKQRPSCLSEKYDSDGVWDPEKWHASLYPASGRSSPVESLKKELDTDRPSLVRRIVDPRERVKEDDLDVVLSPQRRSFGGGCHVTAAVSSRRSGSPLEKDSDGLRLLGGRRIGSGRIISARTFEKDHRLSDKDLRDLRDRDRERDFKDKRFRREFGDSKRVFGERRRNDSYTEEEPEWFSAGPTSQSETIELTGFDDKILEEDHKGRKRTRRRTASVKEGIVECNGGVAEEDEVEVILAQEPAADQEVPRDAVLPEQSPGDFDFNEFFNLDKVPCLASMIEDVLGEGSVSASRFSRWFSNPSRSGSRSSSLGSTPHEELERLAGLEQAILSPGQNSGNYFAPIPLEDHAENKVDILEMLQKAKVDLKPLLSSLSANKEKLKESSHSGVVLSVEEVEAGLKGLKVDQQVKNSTPFMAEHLEETLSAVTNNRQLKKDGDMTAFNKLVSTMKASGTLPSQPKVSRNLESHLMSPAEIPGQPVPKNILQELLGQPVQRPASSNLLSGLMGSLEPTTSLLGQRAPSPPLSQVFQTRAASADYLRPRIPSPIGFTPGPQQLLGDPFQGMRKPMSPITAQMSQLELQQAALEGLALPHDLAVQAANFYQPGFGKPQVDRTRDGFRNRQQRVTKSPAPVHRGNSSSPAPAASITSMLSPSFTPTSVIRKMYESKEKSKEEPASGKAALGDSKEDTQKASEENLLSSSSVPSADRDSSPTTNSKLSALQRSSCSTPLSQANRYTKEQDYRPKATGRKTPTLASPVPTTPFLRPVHQVPLVPHVPMVRPAHQLHPGLVQRMLAQGVHPQHLPSLLQTGVLPPGMDLSHLQGISGPILGQPFYPLPAASHPLLNPRPGTPLHLAMVQQQLQRSVLHPPGSGSHAAAVSVQTTPQNVPSRSGLPHMHSQLEHRPSQRSSSPVGLAKWFGSDVLQQPLPSMPAKVISVDELEYRQ [EIF4ENIF1] | 0.0657 | -0.104 | 0.531 | 0.0256 | 50.3 °C | 49.3 °C
MSI2 | 0.0111 | -0.0604 | -1.64 | 0.473 | 51 °C | 50.8 °C
MAGDLSAGFFMEELNTYRQKQGVVLKYQELPNSGPPHDRRFTFQVIIDGREFPEGEGRSKKEAKNAAAKLAVEILNKEKKAVSPLLLTTTNSSEGLSMGNYIGLINRIAQKKRLTVNYEQCASGVHGPEGFHYKCKMGQKEYSIGTGSTKQEAKQLAAKLAYLQILSEETSVKSDYLSSGSFATTCESQSNSLVTSTLASESSSEGDFSADTSEINSNSDSLNSSSLLMNGLRNNQRKAKRSLAPRFDLPDMKETKYTVDKRFGMDFKEIELIGSGGFGQVFKAKHRIDGKTYVIKRVKYNNEKAEREVKALAKLDHVNIVHYNGCWDGFDYDPETSDDSLESSDYDPENSKNSSRSKTKCLFIQMEFCDKGTLEQWIEKRRGEKLDKVLALELFEQITKGVDYIHSKKLIHRDLKPSNIFLVDTKQVKIGDFGLVTSLKNDGKRTRSKGTLRYMSPEQISSQDYGKEVDLYALGLILAELLHVCDTAFETSKFFTDLRDGIISDIFDKKEKTLLQKLLSKKPEDRPNTSEILRTLTVWKKSPEKNERHTC [EIF2AK2] | -0.0511 | 1.01 | 3.12 | -0.283 | 47.1 °C | 48 °C
MPGVIPSESNGLSRGSPSKKNRLSLKFFQKKETKRALDFTDSQENEEKASEYRASEIDQVVPAAQSSPINCEKRENLLPFVGLNNLGNTCYLNSILQVLYFCPGFKSGVKHLFNIISRKKEALKDEANQKDKGNCKEDSLASYELICSLQSLIISVEQLQASFLLNPEKYTDELATQPRRLLNTLRELNPMYEGYLQHDAQEVLQCILGNIQETCQLLKKEEVKNVAELPTKVEEIPHPKEEMNGINSIEMDSMRHSEDFKEKLPKGNGKRKSDTEFGNMKKKVKLSKEHQSLEENQRQTRSKRKATSDTLESPPKIIPKYISENESPRPSQKKSRVKINWLKSATKQPSILSKFCSLGKITTNQGVKGQSKENECDPEEDLGKCESDNTTNGCGLESPGNTVTPVNVNEVKPINKGEEQIGFELVEKLFQGQLVLRTRCLECESLTERREDFQDISVPVQEDELSKVEESSEISPEPKTEMKTLRWAISQFASVERIVGEDKYFCENCHHYTEAERSLLFDKMPEVITIHLKCFAASGLEFDCYGGGLSKINTPLLTPLKLSLEEWSTKPTNDSYGLFAVVMHSGITISSGHYTASVKVTDLNSLELDKGNFVVDQMCEIGKPEPLNEEEARGVVENYNDEEVSIRVGGNTQPSKVLNKKNVEAIGLLGGQKSKADYELYNKASNPDKVASTAFAENRNSETSDTTGTHESDRNKESSDQTGINISGFENKISYVVQSLKEYEGKWLLFDDSEVKVTEEKDFLNSLSPSTSPTSTPYLLFYKKL [USP1] | -0.0658 | 0.238 | 1.6 | -0.118 | 48.8 °C | –
MAPLLLQLAVLGAALAAAALVLISIVAFTTATKMPALHRHEEEKFFLNAKGQKETLPSIWDSPTKQLSVVVPSYNEEKRLPVMMDEALSYLEKRQKRDPAFTYEVIVVDDGSKDQTSKVAFKYCQKYGSDKVRVITLVKNRGKGGAIRMGIFSSRGEKILMADADGATKFPDVEKLEKGLNDLQPWPNQMAIACGSRAHLEKESIAQRSYFRTLLMYGFHFLVWFLCVKGIRDTQCGFKLFTREAASRTFSSLHVERWAFDVELLYIAQFFKIPIAEIAVNWTEIEGSKLVPFWSWLQMGKDLLFIRLRYLTGAWRLEQTRKMN [ALG5] | -0.147 | -0.322 | -1.32 | -0.514 | 53 °C | 53.8 °C
MLEEDMEVAIKMVVVGNGAVGKSSMIQRYCKGIFTKDYKKTIGVDFLERQIQVNDEDVRLMLWDTAGQEEFDAITKAYYRGAQACVLVFSTTDRESFEAVSSWREKVVAEVGDIPTVLVQNKIDLLDDSCIKNEEAEALAKRLKLRFYRTSVKEDLNVNEVFKYLAEKYLQKLKQQIAEDPELTHSSSNKIGVFNTSGGSHSGQNSGTLNGGDVINLRPNKQRTKKNRNPFSSCSIP [RAB23] | -0.139 | 1.88 | 1.67 | -0.0011 | 53.2 °C | 53.2 °C
MTLEAIRYSRGSLQILDQLLLPKQSRYEAVGSVHQAWEAIRAMKVRGAPAIALVGCLSLAVELQAGAGGPGLAALVAFVRDKLSFLVTARPTAVNMARAARDLADVAAREAEREGATEEAVRERVICCTEDMLEKDLRDNRSIGDLGARHLLERVAPSGGKVTVLTHCNTGALATAGYGTALGVIRSLHSLGRLEHAFCTETRPYNQGARLTAFELVYEQIPATLITDSMVAAAMAHRGVSAVVVGADRVVANGDTANKVGTYQLAIVAKHHGIPFYVAAPSSSCDLRLETGKEIIIEERPGQELTDVNGVRIAAPGIGVWNPAFDVTPHDLITGGIITELGVFAPEELRTALTTTISSRDGTLDGPQM [MRI1] | -0.154 | -0.841 | -0.966 | 0.21 | 52.5 °C | 52.4 °C
MERSGPSEVTGSDASGPDPQLAVTMGFTGFGKKARTFDLEAMFEQTRRTAVERSRKTLEAREKEEEMNREKELRRQNEDIEPTSSRSNVVRDCSKSSSRDTSSSESEQSSDSSDDELIGPPLPPKMVGKPVNFMEEDILGPLPPPLNEEEEEAEEEEEEEEEEENPVHKIPDSHEITLKHGTKTVSALGLDPSGARLVTGGYDYDVKFWDFAGMDASFKAFRSLQPCECHQIKSLQYSNTGDMILVVSGSSQAKVIDRDGFEVMECIKGDQYIVDMANTKGHTAMLHTGSWHPKIKGEFMTCSNDATVRTWEVENPKKQKSVFKPRTMQGKKVIPTTCTYSRDGNLIAAACQNGSIQIWDRNLTVHPKFHYKQAHDSGTDTSCVTFSYDGNVLASRGGDDSLKLWDIRQFNKPLFSASGLPTMFPMTDCCFSPDDKLIVTGTSIQRGCGSGKLVFFERRTFQRVYEIDITDASVVRCLWHPKLNQIMVGTGNGLAKVYYDPNKSQRGAKLCVVKTQRKAKQAETLTQDYIITPHALPMFREPRQRSTRKQLEKDRLDPLKSHKPEPPVAGPGRGGRVGTHGGTLSSYIVKNIALDKTDDSNPREAILRHAKAAEDSPYWVSPAYSKTQPKTMFAQVESDDEEAKNEPEWKKRKI [WDR70] | -0.0897 | -0.26 | -0.746 | -0.0649 | 53.3 °C | 53.2 °C
MESYDIIANQPVVIDNGSGVIKAGFAGDQIPKYCFPNYVGRPKHMRVMAGALEGDLFIGPKAEEHRGLLTIRYPMEHGVVRDWNDMERIWQYVYSKDQLQTFSEEHPVLLTEAPLNPSKNREKAAEVFFETFNVPALFISMQAVLSLYATGRTTGVVLDSGDGVTHAVPIYEGFAMPHSIMRVDIAGRDVSRYLRLLLRKEGVDFHTSAEFEVVRTIKERACYLSINPQKDEALETEKVQYTLPDGSTLDVGPARFRAPELLFQPDLVGDESEGLHEVVAFAIHKSDMDLRRTLFANIVLSGGSTLFKGFGDRLLSEVKKLAPKDIKIKISAPQERLYSTWIGGSILASLDTFKKMWVSKKEYEEDGSRAIHRKTF [ACTR1B] | -0.178 | -0.612 | -1.12 | -0.021 | 54 °C | 53.1 °C
